Columns and labels:
GLP-1-(7-36)-NH2, P01275 = target: T1, GLP-1-(7-36)-NH2, P01275
T1 chain: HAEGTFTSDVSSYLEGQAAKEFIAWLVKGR

[1] = target: T2, [Ala^2,Nle^14,Arg^30]-Ex-3-(1-30)-NH2
T2 chain: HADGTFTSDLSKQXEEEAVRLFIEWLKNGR

B1: dipeptidyl peptidase IV (protein)
chain: MKTPWKVLLGLLGAAALVTIITVPVVLLNKGTDDATADSRKTYTLTDYLKNTYRLKLYSLRWISDHEYLYKQENNILVFNAEYGNSSVFLENSTFDEFGHSINDYSISPDGQFILLEYNYVKQWRHSYTASYDIYDLNKRQLITEERIPNNTQWVTWSPVGHKLAYVWNNDIYVKIEPNLPSYRITWTGKEDIIYNGITDWVYEEEVFSAYSALWWSPNGTFLAYAQFNDTEVPLIEYSFYSDESLQYPKTVRVPYPKAGAVNPTVKFFVVNTDSLSSVTNATSIQITAPASMLIGDHYLCDVTWATQERISLQWLRRIQNYSVMDICDYDESSGRWNCLVARQHIEMSTTGWVGRFRPSEPHFTLDGNSFYKIISNEEGYRHICYFQIDKKDCTFITKGTWEVIGIEALTSDYLYYISNEYKGMPGGRNLYKIQLSDYTKVTCLSCELNPERCQYYSVSFSKEAKYYQLRCSGPGLPLYTLHSSVNDKGLRVLEDNSALDKMLQNVQMPSKKLDFIILNETKFWYQMILPPHFDKSKKYPLLLDVYAGPCSQKADTVFRLNWATYLASTENIIVASFDGRGSGYQGDKIMHAINRRLGTFEVEDQIEAARQFSKMGFVDNKRIAIWGWSYGGYVTSMVLGSGSGVFKCGIAVAPVSRWEYYDSVYTERYMGLPTPEDNLDHYRNSTVMSRAENFKQVEYLLIHGTADDNVHFQQSAQISKALVDVGVDFQAMWYTDEDHGIASSTAHQHIYTHMSHFIKQCFSLP
For B1, the “Substrate for DDP-IV” value (GLP-1-(7-36)-NH2, P01275) was 50% proteolysis and the “Substrate for DDP-IV” value [1] was “no proteolysis”.
